The record followed here is patent US20260092097A1 (published 2026).

This assay deals with T1, p53 peptide on HLA-A*02:01 (human).
T1 peptide: STPPPGTRV
The assay can be described thus: binding, other.

B1: c149scTCR (TCR, V domains shown)
Valpha: QKVTQTQTSISVMEKTTVTMDCVYETRDSSYFLFWYKQTASGEIVFLIRQDSYKKENATEGHYSLNFQKPKSSIGLIITATQIEDSAVYFCAMRDTNAYKVIFGKGTHLHVLP
Vbeta: EAAVTQSPRSKVAVTGGKVTLSCHQTNNHDYMYWYRQDTGHGLRLIHYSYVADSTEKGDIPDGYKASRPSQENFSLILELASLSQTAVYFCASSPHSYEQYFGPGTRLTVL
B1: the binding result is on record as “recognises”.
